Positions count from the first letter of the chain named. Names may count otherwise.
B1: target 2 MT 5'PFS GGU 3'PFS CUC (mixed)
RNA 1: CACCCGUGCAAAAUUGCAGGGGUCUAAAACCUUCUCCAAAUUGUUUCAUCCU
RNA 2: GGGAAUGGAUCCACAUCUACGAAUUCGGUAGGAUGAAACAAUUUGGAGAAGCUCAGAUCGGAAGAGCACACGU
B2: target 2 MT 5'PFS UUC 3'PFS AUA (mixed)
RNA 1: B1 RNA 1
RNA 2: B1 RNA 2 with G27U, G28U, U29C, C52A, C54A
B3: target 2 MT 5'PFS UUC 3'PFS UCC (mixed)
RNA 1: B1 RNA 1
RNA 2: B1 RNA 2 with G27U, G28U, U29C, C52U, U53C
B4: target 2 MT 5'PFS AUG 3'PFS ACG (mixed)
RNA 1: B1 RNA 1
RNA 2: B1 RNA 2 with G27A, G28U, U29G, C52A, U53C, C54G
B5: target 2 MT 5'PFS GUA 3'PFS AUA (mixed)
RNA 1: B1 RNA 1
RNA 2: B1 RNA 2 with G28U, U29A, C52A, C54A
B6: target 2 MT 5'PFS AGU 3'PFS AUU (mixed)
RNA 1: B1 RNA 1
RNA 2: B1 RNA 2 with G27A, C52A, C54U
B7: target 2 MT 5'PFS CUG 3'PFS CCA (mixed)
RNA 1: B1 RNA 1
RNA 2: B1 RNA 2 with G27C, G28U, U29G, U53C, C54A
B8: target 2 MT 5'PFS ACU 3'PFS AGC (mixed)
RNA 1: B1 RNA 1
RNA 2: B1 RNA 2 with G27A, G28C, C52A, U53G
B9: target 2 MT 5'PFS GCG 3'PFS AAC (mixed)
RNA 1: B1 RNA 1
RNA 2: B1 RNA 2 with G28C, U29G, C52A, U53A
B10: target 2 MT 5'PFS GUG 3'PFS UAA (mixed)
RNA 1: B1 RNA 1
RNA 2: B1 RNA 2 with G28U, U29G, C52U, U53A, C54A
B11: target 2 MT 5'PFS CUG 3'PFS CCU (mixed)
RNA 1: B1 RNA 1
RNA 2: B1 RNA 2 with G27C, G28U, U29G, U53C, C54U
B12: target 2 MT 5'PFS AAG 3'PFS CAC (mixed)
RNA 1: B1 RNA 1
RNA 2: B1 RNA 2 with G27A, G28A, U29G, U53A
B13: target 2 MT 5'PFS UCU 3'PFS CUA (mixed)
RNA 1: B1 RNA 1
RNA 2: B1 RNA 2 with G27U, G28C, C54A
B14: target 2 MT 5'PFS GUA 3'PFS UUU (mixed)
RNA 1: B1 RNA 1
RNA 2: B1 RNA 2 with G28U, U29A, C52U, C54U
B15: target 2 MT 5'PFS AUU 3'PFS CUU (mixed)
RNA 1: B1 RNA 1
RNA 2: B1 RNA 2 with G27A, G28U, C54U
B16: target 2 MT 5'PFS CGA 3'PFS UCA (mixed)
RNA 1: B1 RNA 1
RNA 2: B1 RNA 2 with G27C, U29A, C52U, U53C, C54A
B17: target 2 MT 5'PFS GAU 3'PFS CGA (mixed)
RNA 1: B1 RNA 1
RNA 2: B1 RNA 2 with G28A, U53G, C54A
B18: target 2 MT 5'PFS CUG 3'PFS CCG (mixed)
RNA 1: B1 RNA 1
RNA 2: B1 RNA 2 with G27C, G28U, U29G, U53C, C54G
B19: target 2 MT 5'PFS GUA 3'PFS UUA (mixed)
RNA 1: B1 RNA 1
RNA 2: B1 RNA 2 with G28U, U29A, C52U, C54A
B20: target 2 MT 5'PFS CUU 3'PFS UCU (mixed)
RNA 1: B1 RNA 1
RNA 2: B1 RNA 2 with G27C, G28U, C52U, U53C, C54U
B21: target 2 MT 5'PFS ACU 3'PFS AGA (mixed)
RNA 1: B1 RNA 1
RNA 2: B1 RNA 2 with G27A, G28C, C52A, U53G, C54A
B22: target 2 MT 5'PFS GUA 3'PFS UUC (mixed)
RNA 1: B1 RNA 1
RNA 2: B1 RNA 2 with G28U, U29A, C52U
B23: target 2 MT 5'PFS AGU 3'PFS AUA (mixed)
RNA 1: B1 RNA 1
RNA 2: B1 RNA 2 with G27A, C52A, C54A
B24: target 2 MT 5'PFS GAU 3'PFS CGC (mixed)
RNA 1: B1 RNA 1
RNA 2: B1 RNA 2 with G28A, U53G
B25: target 2 MT 5'PFS AGG 3'PFS ACG (mixed)
RNA 1: B1 RNA 1
RNA 2: B1 RNA 2 with G27A, U29G, C52A, U53C, C54G
B26: target 2 MT 5'PFS UGA 3'PFS UAA (mixed)
RNA 1: B1 RNA 1
RNA 2: B1 RNA 2 with G27U, U29A, C52U, U53A, C54A
B27: target 2 MT 5'PFS GAU 3'PFS CGU (mixed)
RNA 1: B1 RNA 1
RNA 2: B1 RNA 2 with G28A, U53G, C54U
B28: target 2 MT 5'PFS AAG 3'PFS CAU (mixed)
RNA 1: B1 RNA 1
RNA 2: B1 RNA 2 with G27A, G28A, U29G, U53A, C54U
B29: target 2 MT 5'PFS AGU 3'PFS AUC (mixed)
RNA 1: B1 RNA 1
RNA 2: B1 RNA 2 with G27A, C52A
B30: target 2 MT 5'PFS GUG 3'PFS UAC (mixed)
RNA 1: B1 RNA 1
RNA 2: B1 RNA 2 with G28U, U29G, C52U, U53A
B31: target 2 MT 5'PFS UGA 3'PFS UAC (mixed)
RNA 1: B1 RNA 1
RNA 2: B1 RNA 2 with G27U, U29A, C52U, U53A
B32: target 2 MT 5'PFS ACU 3'PFS AGG (mixed)
RNA 1: B1 RNA 1
RNA 2: B1 RNA 2 with G27A, G28C, C52A, U53G, C54G
B33: target 2 MT 5'PFS GGU 3'PFS CUG (mixed)
RNA 1: B1 RNA 1
RNA 2: B1 RNA 2 with C54G
B34: target 2 MT 5'PFS AAG 3'PFS CAG (mixed)
RNA 1: B1 RNA 1
RNA 2: B1 RNA 2 with G27A, G28A, U29G, U53A, C54G
B35: target 2 MT 5'PFS GCA 3'PFS ACU (mixed)
RNA 1: B1 RNA 1
RNA 2: B1 RNA 2 with G28C, U29A, C52A, U53C, C54U
B36: target 1 del4,del7 (mixed)
RNA 1: CACCCGUGCAAAAAUGCAGGGGUCUAAAACUGAGCGGAUAACCUCUCUAUGG
RNA 2: GGGAAUGGAUCCACAUCUACGAAUUCGUACCAUAGAGAGGUUAUCGUCACCGAGAUCGGAAGAGCACACGU
B37: target 1 U3G,G17C (mixed)
RNA 1: B36 RNA 1
RNA 2: GGGAAUGGAUCCACAUCUACGAAUUCGUACCAUACAGAGGUUAUCCGCGCACCGAGAUCGGAAGAGCACACGU
B38: target 1 insU 3' of 21,insC 3' of 19 (mixed)
RNA 1: B36 RNA 1
RNA 2: GGGAAUGGAUCCACAUCUACGAAUUCGUACCUAUCAGAGAGGUUAUCCGCUCACCGAGAUCGGAAGAGCACACGU

Target: T1, EsCas13d, nuclease-dead (Eubacterium siraeum, UniProt B0MS50, R295A;H300A;R849A;H854A)
T1 sequence: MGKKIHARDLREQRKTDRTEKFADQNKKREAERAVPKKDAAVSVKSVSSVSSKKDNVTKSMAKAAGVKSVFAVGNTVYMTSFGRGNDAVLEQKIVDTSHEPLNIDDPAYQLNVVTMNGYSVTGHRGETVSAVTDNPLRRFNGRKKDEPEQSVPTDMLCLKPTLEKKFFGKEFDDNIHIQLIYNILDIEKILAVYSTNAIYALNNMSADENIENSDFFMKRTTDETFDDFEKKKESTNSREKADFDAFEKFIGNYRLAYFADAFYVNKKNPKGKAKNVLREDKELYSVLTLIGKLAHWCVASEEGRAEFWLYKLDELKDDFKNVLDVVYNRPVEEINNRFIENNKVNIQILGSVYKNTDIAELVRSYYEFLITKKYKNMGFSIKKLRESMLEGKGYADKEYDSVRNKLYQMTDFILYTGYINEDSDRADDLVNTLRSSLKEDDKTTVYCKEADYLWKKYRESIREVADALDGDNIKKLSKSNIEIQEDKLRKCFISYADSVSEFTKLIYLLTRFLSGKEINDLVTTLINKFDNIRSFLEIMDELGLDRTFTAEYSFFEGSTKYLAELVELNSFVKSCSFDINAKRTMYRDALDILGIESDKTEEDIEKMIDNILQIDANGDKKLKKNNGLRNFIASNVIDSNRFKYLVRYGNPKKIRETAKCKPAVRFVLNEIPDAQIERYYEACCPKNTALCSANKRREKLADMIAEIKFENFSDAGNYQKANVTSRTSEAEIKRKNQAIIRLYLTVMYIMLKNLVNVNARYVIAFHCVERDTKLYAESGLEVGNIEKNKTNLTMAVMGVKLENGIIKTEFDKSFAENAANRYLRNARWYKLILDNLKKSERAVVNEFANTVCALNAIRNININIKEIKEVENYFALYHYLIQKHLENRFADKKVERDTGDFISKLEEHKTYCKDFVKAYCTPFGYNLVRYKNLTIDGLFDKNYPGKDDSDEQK
Assay: crRNA (strand 1, pre-loaded); Mg2+; 40 mM Tris-HCl pH 7.5, 150 mM NaCl, 6 mM MgCl2, 1 mM DTT, 0.1% Tween-20, 0.2 mg/ml BSA; 25 C; 10 min per concentration, then washed
Settings: tags: His6-TwinStrep-SUMO cleaved; N-terminal SNAP kept (SNAP-Surface 488); label: 3' end held by stalled T7 RNA polymerase

Binder	Kd
B1	0.0178 ± 0.0019 µM
B2	0.016 ± 0.005 µM
B3	0.0196 ± 0.003 µM
B4	0.0126 ± 0.0021 µM
B5	0.0061 ± 0.0007 µM
B6	0.0121 ± 0.0021 µM
B7	0.0149 ± 0.0031 µM
B8	0.00318 ± 0.0003 µM
B9	0.015 ± 0.004 µM
B10	0.009 ± 0.0007 µM
B11	0.057 ± 0.022 µM
B12	0.0029 ± 0.001 µM
B13	0.02 ± 0.006 µM
B14	0.062 ± 0.018 µM
B15	0.01 ± 0.001 µM
B16	~0.026 µM
B17	0.0109 ± 0.0014 µM
B18	0.00406 ± 0.0002 µM
B19	0.022 ± 0.004 µM

Binder	Kd
B20	0.0081 ± 0.0008 µM
B21	0.0037 ± 0.0005 µM
B22	0.042 ± 0.011 µM
B23	0.0103 ± 0.0015 µM
B24	0.0127 ± 0.002 µM
B25	0.0067 ± 0.0006 µM
B26	0.006 ± 0.0013 µM
B27	0.0141 ± 0.0026 µM
B28	0.0034 ± 0.0005 µM
B29	0.0167 ± 0.0032 µM
B30	0.0151 ± 0.0015 µM
B31	0.0091 ± 0.0016 µM
B32	0.0045 ± 0.0006 µM
B33	0.014 ± 0.0013 µM
B34	0.0042 ± 0.0007 µM
B35	0.0132 ± 0.0018 µM
B36	0.00534 ± 0.00024 µM
B37	0.0367 ± 0.0028 µM
B38	~0.1 µM

From PMC10786891, “Massively parallel profiling of RNA-targeting CRISPR-Cas13d”
